Results as given in patent US20220340635A1, “FUSION PROTEIN FOR TREATMENT OF METABOLIC DISEASE” (ZHEJIANG DOER BIOLOGICS CORPORATION, priority 2019, published 2022).
Where two headings read alike, the source gives them in different places.

Assays:
[1] = mouse, in vivo; cited from earlier work
FGF21 signaling pathway = assay: FGF21 cell-based bioactivity assay, luciferase reporter in HEK293T cells transfected with GAL4DBD-ELK1 and KLB (β-klotho); settings: Table 4, 6 h
Text: The puromycin resistance gene pac was amplified by PCR and cloned into pcDNA3.1(+) to replace the original G418 resistance gene. The GAL4DBD-ELK1, IRES. and KLB (β-klotho) genes were amplified by PCR and cloned into the pcDNA-Puro plasmid in sequence to construct the plasmid pcDNA-GAL4DBD-ELK1-IRES-KLB-Pero for cell transfection and screening. The constructed recombinant plasmid and the pFR-Luc plasmid (Agilent) were extracted by Omega E.Z.N.A.® Endo-Free Plasmid Midi Kit for future use. The cell transfection process was as follows: HEK293T cells were plated 3×10^5 cells per well in a 6-well plate and cultured overnight.
After washing the cells twice with Opti-MEM medium, 2 ml Opti-MEM medium was added. Cell transfection reagent was prepared according to the following proportion: Lipofectamine 2000 (6 μl ): pFR-Luc (4.6 μg): pcDNA-GAL4DBD-ELK1-IRES-KLB-Pura (1 μg). […]
The cells were digested with pancreatin to prepare a cell suspension (1×10^5 cells/ml, DMEM+5% FBS+1 μg/ml puromycin) after reaching confluence in the dish, followed by plating in a 96-well plate (100 μl per well), and culturing overnight. Samples of gradient concentrations were added and cultured for 6 h before fluorescence detection by the Luciferase Reporter Assay Kit (Lucifersae reporter kit, Ray Biotech, Cat:68-LuciR-S200).

[2] = monkey, in vivo; cited from earlier work

B1: Natural FGF21: natural fibroblast growth factor 21, SEQ ID NO.87 (protein)
chain: HPIPDSSPLLQFGGQVRQRYLYTDDAQQTEAHLEIREDGTVGGAADQSPESLLQLKALKPGVIQILGVKTSRFLCQRPDGALYGSLHFDPEACSFRELLLEDGYNVYQSEAHGLPLHLPGNKSPHRDPAPRGPARFLPLPGLPPALPEPPGILAPQPPDVGSSDPLSMVGPSQGRSPSYAS
modifications: Amino acid sequence of natural FGF21
Serum half-life [1]: 0.5 h | EC50 (FGF21 signaling pathway): 0.12 nM | Serum half-life [2]: 2 h
